Assay results from publication PMC4663176 (Insect biochemistry and molecular biology, 2015).
Read-outs that look alike come from different tables or passages of the source.

Experiments:
[1] = molecular target: T1, Arylalkylamine N-acyltransferase like 2 (AANATL2) (Drosophila melanogaster, UniProt Q9VMG0); experiment: dead-end inhibition kinetics, DTNB assay of CoA release, purified enzyme; format: biochemical
T1 sequence (Q9VMG0 1-216): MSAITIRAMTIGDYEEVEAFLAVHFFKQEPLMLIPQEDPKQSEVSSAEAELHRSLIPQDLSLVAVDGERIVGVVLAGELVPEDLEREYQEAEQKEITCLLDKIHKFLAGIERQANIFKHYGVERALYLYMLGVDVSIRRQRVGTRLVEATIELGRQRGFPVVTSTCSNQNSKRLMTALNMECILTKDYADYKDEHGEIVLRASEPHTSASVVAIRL

[2] = molecular target: T1, Arylalkylamine N-acyltransferase like 2 (AANATL2); experiment: as above; format: biochemical; remark: listed apart in the source
steady-state kinetics [3] = substrate: CC(CN)c1ccccc1; experiment: steady-state kinetics; format: biochemical, Drosophila melanogaster; conditions: acetyl-CoA; pH 8.0
steady-state kinetics [4] = substrate: COc1ccc(CCN)cc1; experiment: steady-state kinetics; format: biochemical, Drosophila melanogaster; conditions: acetyl-CoA; pH 8.0
steady-state kinetics [5] = substrate: NCCCCc1ccccc1; experiment: steady-state kinetics; format: biochemical, Drosophila melanogaster; conditions: acetyl-CoA; pH 8.0
steady-state kinetics [6] = substrate: NCCc1c[nH]c2ccc(OCc3ccccc3)cc12; experiment: steady-state kinetics; format: biochemical, Drosophila melanogaster; conditions: acetyl-CoA; pH 8.0
steady-state kinetics [7] = substrate: NCCc1c[nH]c2ccccc12; experiment: steady-state kinetics; format: biochemical, Drosophila melanogaster; conditions: acetyl-CoA; pH 8.0
purified protein [8] = substrate: CC(=O)SCCNC(=O)CCNC(=O)[C@H](O)C(C)(C)COP(=O)(O)OP(=O)(O)OC[C@H]1O[C@@H](n2cnc3c(N)ncnc32)[C@H](O)[C@@H]1OP(=O)(O)O; experiment: purified protein; conditions: acetyl-CoA binds first in an ordered sequential mechanism
purified protein [9] = substrate: NCCc1cccc(C(F)(F)F)c1; experiment: purified protein; conditions: acetyl-CoA; pH 8.0

Molecule `OCCc1ccc(O)cc1` [tyrosol] has a Ki [1] of 52 ± 9 µM.

`CCCCCCCC/C=C\CCCCCCCC(=O)SCCNC(=O)CCNC(=O)[C@H](O)C(C)(C)COP(=O)(O)OP(=O)(O)OC[C@H]1O[C@@H](n2cnc3c(N)ncnc32)[C@H](O)[C@@H]1OP(=O)(O)O` [oleoyl-CoA] gave a Ki [2] of 0.18 ± 0.03 µM.

B1: Arylalkylamine N-acyltransferase like 2 (AANATL2) (Drosophila melanogaster) (protein)
chain: MSAITIRAMTIGDYEEVEAFLAVHFFKQEPLMLIPQEDPKQSEVSSAEAELHRSLIPQDLSLVAVDGERIVGVVLAGELVPEDLEREYQEAEQKEITCLLDKIHKFLAGIERQANIFKHYGVERALYLYMLGVDVSIRRQRVGTRLVEATIELGRQRGFPVVTSTCSNQNSKRLMTALNMECILTKDYADYKDEHGEIVLRASEPHTSASVVAIRL
B1 was tested, and the Km (steady-state kinetics [3]) was 9 ± 1 µM, the kcat (steady-state kinetics [3]) was 2.9 ± 0.1 s⁻¹ and the kcat/Km (steady-state kinetics [3]) was 320000 ± 40000 M⁻¹ s⁻¹. For the same molecule, the Km (steady-state kinetics [4]) was 10 ± 2 µM, the kcat (steady-state kinetics [4]) was 3.7 ± 0.1 s⁻¹ and the kcat/Km (steady-state kinetics [4]) was 370000 ± 60000 M⁻¹ s⁻¹. It also gave a Km (steady-state kinetics [5]) of 9.5 ± 0.4 µM, a kcat (steady-state kinetics [5]) of 1 ± 0.02 s⁻¹ and a kcat/Km (steady-state kinetics [5]) of 110000 ± 5000 M⁻¹ s⁻¹. The Km (steady-state kinetics [6]) was 8 ± 1 µM, the kcat (steady-state kinetics [6]) was 2.8 ± 0.1 s⁻¹ and the kcat/Km (steady-state kinetics [6]) was 330000 ± 40000 M⁻¹ s⁻¹. For the same molecule, the Km (steady-state kinetics [7]) was 14 ± 3 µM, the kcat (steady-state kinetics [7]) was 4.3 ± 0.3 s⁻¹ and the kcat/Km (steady-state kinetics [7]) was 310000 ± 60000 M⁻¹ s⁻¹. The Km (purified protein [8]) was 5 ± 1 µM, the kcat (purified protein [8]) was 1.6 s⁻¹ and the kcat/Km (purified protein [8]) was 310000 M⁻¹ s⁻¹. It also gave a Km (purified protein [9]) of 10 ± 2 µM, a kcat (purified protein [9]) of 4.5 ± 0.2 s⁻¹ and a kcat/Km (purified protein [9]) of 440000 ± 70000 M⁻¹ s⁻¹.
